We go through one substance from patent US20080220446A1, “Method for Detecting and/or Removing Protein and/or Peptide Comprising a Cross-Beta Structure From an Aqueous Solution Comprising a Protein” (priority 2005, published 2008).

One assay deals with T1, LRP cl-IV (Homo sapiens, UniProt Q07954).
T1 construct: Cluster IV of the low-density lipoprotein (LDL) receptor-related protein (LRP cl-IV); made in house; host or cells: HEK293E/S
The experiment in a line: ELISA, LRP cluster IV binding to misfolded proteins. The conditions noted are these: coated at 5 μg/ml. The method, then: Binding of LRP cl-IV to misfolded protein was determined using an enzyme linked immuno sorbent assay (ELISA) set-up. For this purpose 50 μl of a 5 μg/ml solution of BSA, BSA-AGE, Hb or Hb-AGE or coat buffer (for negative control) was coated for 1 h with motion. Proteins were diluted in coat buffer (100 mM NaHCO3 pH 9.6). The BSA and Hb controls were prepared freshly by dissolving proteins at 1 mg/ml in PBS by rolling for 10 minutes on a roller bank at room temperature, 10 minutes incubation at 37° C. followed by again 10 minutes incubation at the roller bank. Coat controls were performed with anti-glycated protein antibody 4B5, anti-albumin antibody or anti Hb antibody. After coating the plates were washed twice with PBS/0.1% Tween-20 (v/v) and blocked with 300 μl/well blocking reagent (Roche Diagnostics, Almere, The Netherlands) for 1 h at room temperature with motion. […] After five washes with wash buffer binding of antibody was assessed with a secondary antibody. […] After 5 washes with wash buffer, binding of anti-FLAG antibody and secondary antibodies was assessed with 100 μl/well TMB substrate (ready to use from Tebu Bio). […] After ˜2 minutes absorbance was read at 450 nm.
A general note: ELISA stands for enzyme-linked immunosorbent assay.

The target of a further assay is T2, sRAGE (Homo sapiens, UniProt Q15109).
T2 construct: comprises three domains spanning amino-acid residues 23-325; His-tag (N); thrombin cleavage site (N); made in house; host or cells: 293E cells (printed as 'hamster embryonic kidney cells')
T2 sequence (Q15109 23-325): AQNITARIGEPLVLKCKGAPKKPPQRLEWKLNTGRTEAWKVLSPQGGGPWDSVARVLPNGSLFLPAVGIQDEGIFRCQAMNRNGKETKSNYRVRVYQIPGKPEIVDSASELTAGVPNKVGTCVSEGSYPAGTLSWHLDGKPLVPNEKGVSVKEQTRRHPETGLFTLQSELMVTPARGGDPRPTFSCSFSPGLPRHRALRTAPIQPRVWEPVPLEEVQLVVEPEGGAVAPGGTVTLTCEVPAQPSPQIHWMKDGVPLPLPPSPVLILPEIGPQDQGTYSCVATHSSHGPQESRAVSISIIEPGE
The experiment in a line: Biacore surface plasmon resonance, binding to immobilized sRAGE. The conditions noted are these: Hb-AGE 32, albumin-AGE 3.9, amyloid γ-globulins 62.5 μg ml^−1. The method, then: Binding of cross-β structure containing peptides/proteins was studied using surface plasmon resonance technology with a Biacore 2000 apparatus (Biacore AB, Uppsala, Sweden). A standardized amine coupling procedure was used to couple proteins with F domains to a CM5 chip (Biacore AB, Uppsala, Sweden). First, the dextran surface of the chips was activated by a 35 μl injection with a 1:1 mixture of 0.1 M N-hydroxysuccinimide (NHS) and 0.4 M N-ethyl-N′-(dimethylaminopropyl)carbodiimide (EDC) at a flow rate of 5 μl min.^−1. Then, the proteins were covalently coupled to the activated dextran surface. Remaining activated groups in each of the four flow channels were blocked by injection of 35 μl of 1 M ethanolamine hydrochloride pH 8.5. EDC, NHS and ethanolamine hydrochloride were obtained from Biacore. On one chip, on channels 1 to 4, buffer (reference channel), the soluble extracellular part of receptor for advanced glycation endproducts (sRAGE), tPA and K2P-tPA were immobilized. […] Binding of albumin-AGE was determined with a solution of 3.9 μg ml^−1 albumin-AGE in running buffer. albumin-AGE was filtered on a Millex-GV 0.22 μm filter unit (Millipore). […] Binding of Hb-AGE was also tested after centrifugation for 10 min. at 16,000*g alternative to filtration. tPA activation before and after filtration was assessed with a Plg-activation assay. […]
Background: SPR reads the build-up and loss of mass on a sensor chip optically.

The test system of another assay is platelets. The experiment in a line: Platelet aggregation assay with BSA-AGE spiked plasma before and after depletion. The format is cell-based, human. The conditions noted are these: 512-fold diluted plasma spiked with 250 μg/ml, tenfold diluted. The method, then: Results are compared to platelet activating properties of the spiked plasma before depletion of BSA-AGE.
Freshly drawn human aspirin free blood was mixed gently with citrate buffer to avoid coagulation. Blood was spinned for 15′ at 150*g at 20° C. and supernatant was collected; platelet rich plasma (PRP) with an adjusted final platelet number of 200,000 platelets/μl. Platelets were kept at 37° C. for at least 30′, before use in the assays, to ensure that they were in the resting state. For the aggregometric assays, 270 μl platelet solution was added to a glass tube and prewarmed to 37° C. A stirring magnet was added and rotation was set to 900 rpm, and the apparatus (Whole-blood aggregometer, Chrono-log, Havertown, Pa., USA) was blanked. […] Aggregation was followed in time by measuring the absorbance of the solution, that will decrease in time upon platelet aggregation. As a positive control synthetic thrombin receptor activating peptide TRAP was used. Aggregation was recorded for 15′ and expressed as the percentage of the transmitted light (0-100%).

T1 sequence (Q07954 3332-3778): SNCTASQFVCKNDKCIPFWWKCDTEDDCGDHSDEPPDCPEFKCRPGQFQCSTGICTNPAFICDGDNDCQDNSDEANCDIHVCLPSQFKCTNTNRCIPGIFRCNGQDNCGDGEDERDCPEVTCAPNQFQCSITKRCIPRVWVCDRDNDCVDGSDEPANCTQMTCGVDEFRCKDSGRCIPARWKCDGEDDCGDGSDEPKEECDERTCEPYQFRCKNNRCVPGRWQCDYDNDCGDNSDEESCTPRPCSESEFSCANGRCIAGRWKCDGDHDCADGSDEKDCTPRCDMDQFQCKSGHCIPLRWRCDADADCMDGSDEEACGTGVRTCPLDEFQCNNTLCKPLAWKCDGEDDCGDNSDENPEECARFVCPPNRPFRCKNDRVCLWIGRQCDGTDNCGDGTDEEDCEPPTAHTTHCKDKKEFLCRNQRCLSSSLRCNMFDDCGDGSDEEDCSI

Take “albumin-AGE: advanced glycation end-product modified bovine serum albumin”: the “binding of LRP cl-IV” value in the assay with LRP cl-IV was “binds specifically”. Besides, in the assay with sRAGE, the “binding to immobilized sRAGE” value is given as “bind”. In addition, the platelet aggregation result in the assay with platelets was “Platelets readily aggregate”.
